The text below walks through data of patent publication US20130189725A1, “HUMAN IN VITRO MODEL OF THE BLOOD CER[…] BARRIER” (RUPRECHT-KARLS-UNIVERSITAT HEIDELBERG, priority 2010, published 2013).

In this data set the test system is HIBCPP monolayers. Nature of the data set: Paracellular permeability: FITC-inulin flux through HIBCPP layers on transwell filters. The conditions noted are these: standard and inverted transwell filter system. Format: in vitro ADME, human. The method, then:
HIBCPP were cultured in a 1:1 mixture of DMEM medium and HAM's F12 medium, supplemented with 4 mM L-Glutamine, 5 μg/ml insulin, penicillin (100 U/ml) and streptomycin (100 μg/ml), and 15% (v/v) heat inactivated fetal calf serum (FCS) [HIBCPP-medium with 15% (v/v) FCS]. Since HIBCPP have been described to change doubling time with increasing passages, only cells between passage 33 and 37 were used. For filter-based assays, the amounts of cells indicated in the respective experiments were seeded on the filter membrane of transwell filters (pore diameter 3.0 μm, pore density 2.0×10^6 pores per cm^2, 0.33 cm^2; Greiner Bio-one, Frickenhausen, Germany). For the standard transwell filter system, cells were seeded into the upper well of the transwell filter. Subsequently, cells were washed once each of the following two days. Medium was added to the lower well not before day two after seeding. […]
Paracellular permeability of HIBCPP monolayers was determined by measuring the passage of a FITC-inulin (Sigma, Deisenhofen, Germany) tracer solution (100 μg/ml) from the apical to the basolateral compartment of transwell filters carrying the monolayers in a Tecan Infinite M200 Multiwell reader (Tecan, Switzerland) employing Magellan V6.6 software.

For FITC-inulin, the “permeability for FITC-inulin” value (after day 0, simultaneously with development of a high TEER, 15%, 1% or no serum) is listed as “below 1%”. The substance further returned an FITC-inulin flux (up to day 0 when TEER values are still low, tracer 100 μg/ml) of at least 3%.
